Data reported in the DeepSol protein solubility set.

Assay: soluble on expression in E. coli; label from the status in PepcDB or PDB records

Sequence	soluble on expression in E. coli
MGSDKIHHHHHHMACGEFSGDDAAMKQTSFATAEYAGKKRQTRRERFLAEMNVVVPWARLEALIEPHYPKSGKVGRPPIGVPRMLRMYFLQQWYTLADEALEDALYDSQAMREFIGIDLGRENVPDATTLLKFRRLLEQHDLTSAILAEVNAHLTERGLLMRQGTVVDATIIAAPSSTKNEDGKRDPEMHQTKKGNQWHFGMKMHSGVDAESGLIHSVVCTAANEADVAHAHELLHGQESQVHGDSGYTGIQRRDEITTAQEEGRLRQDMDWRIAMKRGQLKAMPEGPAKAMHEWFERRKAQVRAIVEHPFHVIKNLFGYRKVSYRGISKNEARAKAHAALANLYIARRRLLAQGLSASAA	not soluble
SNQECPDYLRELIRKTKTLTEKPFGIGVVLAFPHDLNIKTILEEKVAVLQLYWGDCSQELVDDAHFAGVKVIPQVGNVEEARKAVAVGVDAIIVQGREAGGHVIGKDGLFSLLPRVVDLVGERDIPVIAAGGIVDGRGYVAALSLGAQGVCLGTRFVATHESYAHPIYKRKLIEYEKTEYTDVFGRARWPGAPQRVLETPFFDDWRSLPAHENEVNQPIIGRSTIHGVEKEIRRFSGTVPNMTTTGDLESMAMYAGQSVGLIKEILPAGEVVKSLVEEAQALILQKFNNATTT	soluble
MAHHHHHHMIVDSAVTERVVLQQQQELDAAERRCAAAEQRLEVELQKTFWRFLTTSAPDAVAAANRKQQSLGWANGGDGAGADSSLYRAEVDVSRFAEVRKAASPNPHRCNTAVAPFSPVRLVPVRTIKLSNEVGDASAAAAASRTQSPSKRSQDSALQPIVLDISPVSALSRCLGCCSGTQLGAIASSVSSAAEEHLLRLAHTRHSVLLFIGSESAAMDVMQSCKAPELLLGAGHSCRDRFQPLANHPVLRVLFTTRLWGANVVLLWNPAQDAALAVAAQAVVEDALELAYAWDADMFSVAVLEGARLPSYAGAGGVSAVATGASSTSAAFFASQAVSMEVLRQLRNSVTRELLDTAGMRRARRWQGTATWMQQGIGSAAAATTGTHMCPRAVGVLYVSQSAQQEQENQLQHQEVSCTASSIRSNAASPLRGDNSIVSVMSSSFLFSPTSPASAFRGPCITFNTPLAIRAFLPLAEEYFIREQPSLVRGSSRGGGDGHHGVSEAASSSTLNQEGGGARGLLRRTASATATEDDDASFSSEKDARFSPASLSATSAPASSPAIDAIRASGSGGEAGLRRQPEMTLESLIQYAFGDLAEIL	not soluble
MQNNDFRTGSGSLKGSSTGVLKQFLFENVFICRIGVIKSFDFETQKGVVTIKEYEGLEISTCSISNFNFDLTAEDEVILLQSNFNIFQESDNNHFDKNYFYILSVLNPKKIGIRLDQFELSVQELGAQSENIKFKAKKLIIDVDNIEIKGNLKINGTKFENHMHSSGTLTYVNSSGVPTTTTGKTGPIA	soluble
MAGEEINEDYPVEIHEYLSAFENSIGAVDEMLKTMMSVSRNELLQKLDPLEQAKVDLVSAYTLNSMFWVYLATQGVNPKEHPVKQELERIRVYMNRVKEITDKKKAGKLDRGAASRFVKNALWEPKSKNASKVANKGKSKS	not soluble
MSRKIPKEPTTRPAFNAYEKHVRDINNFVIPYQRENKYKKVVGETDLDVLKREYRFIRESEEEDAKSWETRLARRHYERLYKDYAIAELSQWREGSVGFRWLNQTEVLQGKGYSCCAATDCDSASELNTFEVPFTYEEDGETKATLVKVRLCRSCQVKMRESYRIAREKLK	soluble
MIFAYNKEHVGDVLLVIVADDQGAENQVKRVGDVARVSLVEAPETVVAWNIFNASALLGDINGTGQVTLTDEQIEKVNTAIKDAGFSETLEKDDTPKIVVGFVKSCKKHPDSDHLSITQTEVDNGEILQIVCGAPNIKAGQKVVVAKPGAMMPDGLMIWPGVLRGEESFGMICSAKELRLPNAPAKKGILELPFDAEVGSAFAVGE	not soluble
MYPDHMFKYVIIGDGGVGKSNLLLRFTDELFDPIHTTTLGVEFGYKDLQIDKYKVRLRVWDTCGQENFRSIIRAYYRNALGALLVYDITCRKSFVHLEQWLSDLRQHGHPEMVIMLIGNKSDLKAVRDVTTEEGEAFAKKNGLTFMETSAKANKHVEKAFVNTAHEIYKKLKLGVIEDDDVKKKKIGIILRSRSGKEKKCC	soluble
MSPPLAEERLTRIVQLLAERGTLRTAALTELLGVSSATIRRDLDVLAGRGLIRKLHGGAALAAPEPEAPLNQDQFYRDRQQVNHLGKQRLAGRALELIAPGQTLYLDAGTTALALAEALQRTPQLTRTLRVVTHGIDVAYVLNGECALYVVGGEVYGSTYSLTGPDALSTVSRYNYDLFFVSCTSIDPAGRLTNSNSVEAQQKASILRQSRRSVLIADQSKWGPPGFAPFAGFAEVSAWVTDRAPATARAAFEQAGVTVLEADASARELSADLEHHHHHH	soluble
MARESVKILQGKLDVESLISQLNAALSEEWLAYYQYWVGALVVEGAMRADVQGEFEEHAEEERRHAQLLADRIIELEGVPVLDPKKWFELARCKYDAPQGFDSVSLLKDNVASERCAILRYQEIADFTNGKDFTTCDIAKHILAEEEEHEQDLQDYLTDIARMKKSFLDK	not soluble
MCICPNRQTAASVGQRYGEPVVLRVDAGRMHRNGLPFFKADNGVWLTAQVPAAFLTRPRLEHHHHHH	not soluble
SQILDRKGRLIANIYDKEFRFYARFEEIPPRFIESLLAVEDTLFFEHGGINLDAIMRAMIKNAKSGRYTEGGSTLTQQFVKNMVLTREKTLTRKLKEAIISIRIEKVLSKEEILERYLNQTFFGHGYYGVKTASLGYFKKPLDKLTLKEITMLVALPRAPSFYDPTKNL	not soluble
MSLRKPPLHMLPLGGCGEIGMNFTLYGHQDHWIVVDCGMMIRQDLPQAPLQVPNVDMLASQNIVPRAIVVTHGHEDHIGAIAWLWPRWQCPVHATPLAAGLLRLRFAEQQLPTSAIQVITPGDAMESGPFDIRFLPLPHSIPESCALLLTTPQHRILHTGDWKLDPEPLIGKPASPQRFQALAPVDLVVGDSTNAPVPGHSRSEGEVARALETTIGACPGRVIVSCFASNLARILALGRAAHACGRRVSLMGRSMERMVGVARGLGYLEDFPPLVPVRDLGYLPPEEVLVIATGSQGEPRAALSRLAQGRHADFELHPGDSVIFSAKAIPGNELLIERLQAGLKRAKVTIFDERSHPELHASGHPAQAELRRFYEWVKPRRLLPVHGEQQHQQAHRALAESLGIEVPWIPRNGDMLRLDAEGLHCESRHSLAPHIVTQNRIHPLEGLRAPEASSMHRRSGILSLTLPVVRQSTGWVRIGRLLWDTSHDLPLDDVALADWVDEQLAGHDADTIVTLRQRLHGPLMHWLGDHLRHLPDVHLHIMAAEGDTVYDAEGHHHHHH	soluble
MPPDEIEIEPVRQSSDKMLYCEAESPPTVEKVKPARENSETDLEIEDDEKFFTTGQKELYLEACKLMGVVPVSYFIRNMEESYVNLNHHGLGPRGTKAIAIALVSNMAVTKLELEDNCIMEEGVLSLVEMLQENYYLQEMNISNNHLGLEGARIISDFFERNSSSIWSLELSGNDFKEDSAALLCQALSTNYQIKKLDLSHNQFSDVGGEHLGQMLAINVGLTSLDLSWNNFHTRGAVALCNGLRGNVTLTKLDLSMNGFGNEVALALGEVLRLNRCLVYLDIGGNDIGNEGASKISKGLESNESLRVLKLFLNPINMDGAILLILAIKRNPKSRMEELDISNVLVSEQFMKTLDGVYAVHPQLDVVFKAVQGLSPKKTIFLLTNPMKLIQSYADQHKITIVDFFKSLNPTGTMKMSVDEFQKVMIEQNKVPLNQYQVREVIKKLDEKTGMVNFSFLNTMKP	soluble
MTIDCHEDRRVLLVPHTGRPQNVASAALAAELLDDSGVGVRVLVPAEDTTVATHPVLGQFERVSHSPQATQSVDLVLVLGGDGTFLRAADLAHGADLPVLGINLGHVGFLAEWEKDSLDEAVRRVTKGSFRIEERMTLDVSVYDSNGTAIGRGWALNEVSIENSNRSGVLDATLEIDSRPVSSFGCDGIIVSTPTGSTAYAFSAGGPVLWPELDAILVVPNNAHALFTKPLVVSPRSSVAVESHPSAFPATAVMDGFRSISVPPGARVEVKRGSRSIKWVRLDDIPFTDRLVTKLRLPVEGWRGPKNMIPQINPHSALEHHHHHH	soluble
GPGSMETAIQQDPVYVRLGVFRRLHGSNEVEWLMLRRINREMRPPDIPPISLKLPGKWTLLYERYKEAAIRTLWEETGITVDPTSVFPTAQLYQTSPKYYWRVPVRYFVAEVPHDVRVEGPQVVPTQYMRNWDVRLLRQSPDPIDRAWAQLADPITGCAWMKAPMIDELQKPLRGEKYMATRYTPPPYSNLQEVVGLGDGDQDTQNKETEAADPNA	not soluble
MNEQRLSMRLERVATHVPAGARLADIGSDHGYLPVALLNRGAVSAAVAGEVALTPFYAAERTVRENDLDQQISVRLADGLAAIEPTDRITAISLCGMGGETIRDILESGKARLSGQERLILQPNGGEQPLRVWLMEHNYRILDEEVLRENRFDYEIIVAERTGPMIYTAEQLYFGPIQMQTRSPAFLLKWQRLLGKKHKALSNFARARKAVPEEKMQDLAQQIRWITALLN	not soluble
NGVPSTNVNTPAPNTGQSTAQNTNTASPLPYNRATTLPAAGTEDLKKSVQALQNTLTELQALQLQTKQAHWNVSGTLWYTLHELLQDHYEGISKFADDVAERQLSVGASSDGRAITIVAASRLPEIPGGFLDDAQVIQFFTYQYETVGQRIHQRVGDVEKVDPTTANLLQEVEHIIEKYQWQMRAFLQNTPTDPNTGFDINNGKPVPLRGR	soluble
EVQLVESGGGLVQPGGSLRLSCAASGFTFSDYGIAWVRQAPGKGLEWVAFISDLAYTIYYADTVTGRFTISRDNSKNTLYLQMNSLRAEDTAVYYCARDNWDAMDYWGQGTLVTVSSASTKGPSVFPLAPSSKSTSGGTAALGCLVKDYFPEPVTVSWNSGALTSGVHTFPAVLQSSGLYSLSSVVTVPSSSLGTQTYICNVNHKPSNTKVDKKVEPKSCDKTHTC	soluble
MGSDKIHHHHHHVTSEIKRGVSLYSYQNETFQGKMTLEDCIRTSAELGAKGIEIIGEQTFWGWPECGVAQADVDTWHRLIKQYDCTPVSHDFMLDYKRYKGREMPFDEQVASVKNDVDFGARLGMKYIRALVSIAPEVLVAAAPYAEEKGIKILIEVHAPLHFDHPWIIRHAEAFEKSGSDALGFLPDMGMFLFAFPPVWKEKFLRIGVPKNIADYVEKAYEDRVLSEYVILNVQQMGGTGPAIAMAETLRHNAAFEPRRMLDYMHRIHNVHGKFYQMNEDYVEPSIPYDEIVKVLKQGGFNGYICSEYEGNRWIEDAEEPDSVEQVRRQQVMLARLLGETEVPTIQTSPTASAMAEAAA	not soluble
MSLRNDAYSTLRVSSEHGVARIILDNPPVNVIGATMMRELRTVLTTLADDSSVRVIVFSSADPEFFLAHVDMRIGEKMDALQELAASAPADVNVFQAVGELIRHQPQVTIVKLAGKARGGGAEFVAAADMAFAAAETAGLGQIEALMGIIPGGGGTQYLRGRVGRNRALEVVLTADLFDAETAASYGWINRALPADELDEYVDRVARNIAALPDGVIEAAKRSLPADDLKEGLLGENDAWAATFSLPAAQQLISGGLKDGAQTPAGERDLEGLMRSVAREGHHHHHH	soluble
MDYSVANAGFERFQSAMEKDVERMRDFQERMSQVRGKGEAAEGRITAEVDSENGLAVLDIDPRVLRMPVEDISTEIRAAVNAAFKDFQDKTGSLAAELYGAQGEDPEKILADPSALLAKIEELGNNFAVQLQDMARELSVQQQRAKDIAGRMTPPRDLD	not soluble
